{"source": "IntAct's records for PubMed 31515488", "parents": {"B1": {"name": "Actin nucleation-promoting factor WAS (Homo sapiens), P42768 (parent)", "chain": "MSGGPMGGRPGGRGAPAVQQNIPSTLLQDHENQRLFEMLGRKCLTLATAVVQLYLALPPGAEHWTKEHCGAVCFVKDNPQKSYFIRLYGLQAGRLLWEQELYSQLVYSTPTPFFHTFAGDDCQAGLNFADEDEAQAFRALVQEKIQKRNQRQSGDRRQLPPPPTPANEERRGGLPPLPLHPGGDQGGPPVGPLSLGLATVDIQNPDITSSRYRGLPAPGPSPADKKRSGKKKISKADIGAPSGFKHVSHVGWDPQNGFDVNNLDPDLRSLFSRAGISEAQLTDAETSKLIYDFIEDQGGLEAVRQEMRRQEPLPPPPPPSRGGNQLPRPPIVGGNKGRSGPLPPVPLGIAPPPPTPRGPPPPGRGGPPPPPPPATGRSGPLPPPPPGAGGPPMPPPPPPPPPPPSSGNGPAPPPLPPALVPAGGLAPGGGRGALLDQIRQGIQLNKTPGAPESSALQPPPQSSEGLVGALMHVMQKRSRAIHSSDEGEDQAGDEDEDDEWDD"}, "B2": {"name": "Keratin, type II cytoskeletal 6A (Homo sapiens), P02538 (parent)", "chain": "MASTSTTIRSHSSSRRGFSANSARLPGVSRSGFSSVSVSRSRGSGGLGGACGGAGFGSRSLYGLGGSKRISIGGGSCAISGGYGSRAGGSYGFGGAGSGFGFGGGAGIGFGLGGGAGLAGGFGGPGFPVCPPGGIQEVTVNQSLLTPLNLQIDPTIQRVRAEEREQIKTLNNKFASFIDKVRFLEQQNKVLETKWTLLQEQGTKTVRQNLEPLFEQYINNLRRQLDSIVGERGRLDSELRGMQDLVEDFKNKYEDEINKRTAAENEFVTLKKDVDAAYMNKVELQAKADTLTDEINFLRALYDAELSQMQTHISDTSVVLSMDNNRNLDLDSIIAEVKAQYEEIAQRSRAEAESWYQTKYEELQVTAGRHGDDLRNTKQEIAEINRMIQRLRSEIDHVKKQCANLQAAIADAEQRGEMALKDAKNKLEGLEDALQKAKQDLARLLKEYQELMNVKLALDVEIATYRKLLEGEECRLNGEGVGQVNISVVQSTVSSGYGGASGVGSGLGLGGGSSYSYGSGLGVGGGFSSSSGRAIGGGLSSVGGGSSTIKYTTTSSSSRKSYKH"}}}
{"variants_of": "B1", "settings": "with cdc42_human CDC42, P60953"}
{"variant": "I294T", "effect of a mutation on the interaction": "disrupting interaction strength"}
{"variant": "E131K", "effect of a mutation on the interaction": "with no effect"}
{"variants_of": "B2", "settings": "with KRT17, Q04695"}
{"variant": "R415H", "effect of a mutation on the interaction": "with no effect"}
{"variant": "A335T", "effect of a mutation on the interaction": "with no effect"}
{"variant": "V523F", "effect of a mutation on the interaction": "with no effect"}
{"variants_of": "B2", "settings": "with tfp11_human TFIP11, Q9UBB9"}
{"variant": "R415H", "effect of a mutation on the interaction": "with no effect"}
{"variant": "A335T", "effect of a mutation on the interaction": "with no effect"}
{"variant": "V523F", "effect of a mutation on the interaction": "with no effect"}
{"variants_of": "B2", "settings": "with KRT15, P19012"}
{"variant": "R415H", "effect of a mutation on the interaction": "with no effect"}
{"variant": "A335T", "effect of a mutation on the interaction": "with no effect"}
{"variant": "V523F", "effect of a mutation on the interaction": "with no effect"}
